Experimental findings from US20250270301A1 (GEN2 NEUROSCIENCE, published 2025) are described below.

Positions count from the first letter of the chain named. Where two headings read alike, the source gives them in different places.

For test [1], the target named is T1, Bovine serum albumin (bovine, UniProt P02769 25-607).
T1 construct: also called BSA
Description: ELISA on 1% BSA, HEK supernatant, anti-human IgG-HRP, n=1. The protocol:
FIG. 7. A panel of humanised anti-tau IgG bind to full length recombinant 2N4R tau in an ELISA format. Supernatants from HEK cells transiently transfected with each IgG clone were tested at 1:100 for binding to full length recombinant 2N4R tau (solid bars). […] Binding of anti-tau hIgG1 was detected using an HRP-conjugated anti-human secondary antibody and data are shown from a representative experiment (n=1 replicate).
Antigen was removed from wells and the plates were then blocked for 1 hour at RT with 5% dried milk in 1×TBS. Blocking solution was removed, HEK293 cell supernatant (1:100 in 1% BSA/1×TBS) was added to relevant wells, and plates were incubated for 1 hour at RT with gentle shaking. Plates were then washed four times with TBS/0.1% Tween (TBST). Goat anti-human IgG-HRP antibody (Thermo Fisher Scientific, Waltham, MA, USA), diluted 1:2000 in 5% milk/TBS, was added to each well and plates were incubated for 1 hour at RT with gentle shaking before being washed four times with TBST. 3,3′,5,5′-tetramethylbenzidine (TMB) ELISA solution was added to each well and plates were incubated for 15 mins at RT. An equal volume of 1 M sulfuric acid was added to each well and OD was measured at 450 nm.
A general note: An ELISA detects its analyte on a solid surface through an enzyme-linked reagent.

Test [2] concerns the target T2, full length recombinant human 2N4R tau (human, UniProt P10636 1-758).
T2 construct: bought from rPeptide; pHrodo Red maleimide-labelled where it stands in uptake assays; also called tau1-441; full length tau
Description: SPR MCK, IgG on Protein A, tau in flow. The protocol: Slight variations in RMAX are considered likely to be due to differences in ligand capture and not reflective of significant variation in antibody binding characteristics.
22.2 Assessment of antibody binding to tau (Biacore MCK analysis): Binding of anti-tau hIgG1 to full length recombinant 2N4R tau (Rpeptide; SEQ ID NO: 2) was assessed using the Biacore T200 (GE Healthcare, Chicago, IL, USA) running Biacore T200 Evaluation Software V2.0.1. hIgG1 were immobilised on a Protein A capture sensor chip in running buffer (HBS-EP+ buffer containing 1 mg/mL BSA) at 25° C., captured to ˜50 RU at […]. For multi-cycle kinetics experiments, recombinant 2N4R tau was flowed at concentrations ranging from 0.39 nM to 12.5 nM in running buffer at 40 μL/min, with an association time of 60 s and a dissociation time of 200 s. Curves were compared to a reference cell that was mock immobilized (no antibody present).

Test [3] has as its target T2, full length recombinant human 2N4R tau. Put plainly: SPR SCK, IgG on Protein A, tau in flow. How it is done:
21.5 Assessment of antibody binding to tau (Biacore SCK analysis): Binding of anti-tau hIgG1 to full length recombinant 2N4R tau (Rpeptide; SEQ ID NO: 2) was assessed using the Biacore T200 (GE Healthcare, Chicago, IL, USA) running Biacore T200 Evaluation Software V2.0.1. hIgG1 were immobilised on a Protein A capture sensor chip in running buffer (HBS-EP+ buffer containing 1 mg/mL BSA) at 25° C., captured to ˜50 RU at 10 μL/min. For single-cycle kinetics experiments, recombinant 2N4R tau was flowed at concentrations ranging from 1.25 nM to 10 nM (2-fold dilutions) with an association time of 60 s and a dissociation time of 200 s. Curves were compared to a reference cell that was mock immobilized (no antibody present).

Test [4] addresses monomeric P301S 2N4R tau, pHrodo-labelled (human, UniProt P10636 1-758, pHrodo Red maleimide label). Put plainly: cell-based or functional assay.
The target in test [5] is aggregated (oligomeric) P301S 2N4R tau, pHrodo-labelled (human, UniProt P10636 1-758, pHrodo Red maleimide label). Put plainly: cell-based or functional assay.
Sequence of aggregated (oligomeric) P301S 2N4R tau, pHrodo-labelled (P10636 other isoform, or with tags, fused parts or gaps P301S P301S): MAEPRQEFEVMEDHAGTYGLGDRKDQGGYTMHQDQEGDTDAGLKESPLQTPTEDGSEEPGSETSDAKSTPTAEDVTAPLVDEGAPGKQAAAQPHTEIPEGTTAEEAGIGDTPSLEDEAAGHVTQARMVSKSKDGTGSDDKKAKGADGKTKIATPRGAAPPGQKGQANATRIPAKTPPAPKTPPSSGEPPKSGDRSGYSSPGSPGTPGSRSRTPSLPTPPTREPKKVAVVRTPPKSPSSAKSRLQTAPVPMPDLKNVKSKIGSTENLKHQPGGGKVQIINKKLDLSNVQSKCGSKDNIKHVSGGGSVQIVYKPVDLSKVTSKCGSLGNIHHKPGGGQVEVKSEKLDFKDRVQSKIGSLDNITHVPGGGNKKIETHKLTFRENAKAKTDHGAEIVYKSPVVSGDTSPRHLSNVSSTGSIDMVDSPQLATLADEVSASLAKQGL
Test [6] addresses T1, Bovine serum albumin. Description: ELISA on 1% BSA, HEK supernatant, anti-human IgG-HRP, n=1. The source holds these as a separate data set.
Test [7] concerns the target T2, full length recombinant human 2N4R tau. Description: SPR SCK, IgG on Protein A, tau in flow. The source holds these as a separate data set.

Sequence of monomeric P301S 2N4R tau, pHrodo-labelled (P10636 other isoform, or with tags, fused parts or gaps P301S P301S): as above
T1 sequence (P02769 25-607 limits assumed): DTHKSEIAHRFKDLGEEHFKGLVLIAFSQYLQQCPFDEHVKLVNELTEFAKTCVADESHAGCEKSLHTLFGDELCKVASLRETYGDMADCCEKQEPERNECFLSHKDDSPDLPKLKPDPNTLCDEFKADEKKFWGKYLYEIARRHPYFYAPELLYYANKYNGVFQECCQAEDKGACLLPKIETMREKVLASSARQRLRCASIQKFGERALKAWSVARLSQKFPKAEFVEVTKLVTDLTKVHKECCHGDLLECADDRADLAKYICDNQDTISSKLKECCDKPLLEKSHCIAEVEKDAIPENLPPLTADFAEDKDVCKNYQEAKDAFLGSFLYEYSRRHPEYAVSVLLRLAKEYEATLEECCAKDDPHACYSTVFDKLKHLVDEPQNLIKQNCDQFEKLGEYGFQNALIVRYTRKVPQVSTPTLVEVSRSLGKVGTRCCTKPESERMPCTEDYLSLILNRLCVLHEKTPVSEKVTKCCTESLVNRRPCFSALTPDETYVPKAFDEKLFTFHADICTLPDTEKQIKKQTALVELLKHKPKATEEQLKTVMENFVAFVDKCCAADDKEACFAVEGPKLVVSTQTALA
T2 sequence (P10636 other isoform, or with tags, fused parts or gaps limits assumed): as the sequence (P10636 other isoform, or with tags, fused parts or gaps P301S P301S) above, with S301P counted along it

B1: #44 VH4VK2 humanised hIgG1 (antibody, V domains shown)
VH: QVQLQESGPGLVKPSETLSLTCTVSGIDLSSYAMAWVRQAPGKGLEWIGCIDRRGGTFYASWVKGRFTISKDTSKTTVDLQMTSLTAEDTATYFCARDSGAFDPWGQGTLVTVSS
VL: QIVMTQSPSSLSASVGDRVTITCQASQSVYDNYLAWYQQKPGQPPKLLIHAASNLASGVPSRFKGSGSGTEFTLTISSLQPDDFATYYCLGEFSCTTTDCNVFGGGTKVEIK
notes: also called VH4Vκ2; Clone VH4VK2 (C)
As usually defined, the Kd is the concentration at which binding is half-saturated. The term koff denotes the rate constant with which the complex falls apart. For orientation: kon means a measure of how fast the partners come together. As to B1, the binding result with Bovine serum albumin [1] is on record as “no binding (tested: supernatant 1:100)”. Also, in test [2], the Kd was determined as 4.39 nM, the “Relative KD (to VH0VK0)” value worked out at 1.35, the koff stood at 0.0401 s⁻¹ and the kon came out at 9.14e+06 M⁻¹ s⁻¹. In test [3], the Kd worked out at 6.86 nM, the “Relative KD (to VH0VK0)” value worked out at 1.79, the koff amounted to 0.0247 s⁻¹ and the kon is 3.6e+06 M⁻¹ s⁻¹. Further, in test [4], the “increase of monomeric tau uptake into human iPSC-derived microglia” value came to 71.4%, the “inhibition of monomeric tau uptake into human iPSC-derived astrocytes” value is 84.6% and the “inhibition of monomeric tau uptake into human iPSC-derived neurons” value was found to be 50%. In addition, in test [5], the “increase of aggregated tau uptake into human iPSC-derived microglia” value was found to be 97.6%, the “inhibition of aggregated tau uptake into human iPSC-derived astrocytes” value is 48% and the “inhibition of aggregated tau uptake into human iPSC-derived neurons” value is 41.9%.

B2: #44_VH4VK4_H08/pVL (antibody, V domains shown)
VH: B1 VH with C50A, R53A, R54A, G56R
VL: B1 VL with Q1D, V3Q, K64S
notes: also called Clone VH4_H08; #44_VH4_H08
For B2, the binding result in the test with Bovine serum albumin [6] is recorded as “no binding (tested: 30 ng/ml (legend 1:100))”. In test [7], the “Fold change (KD, to pVH/pVL)” value amounted to 0.26; the equilibrium dissociation constant (Kd) was determined as 25.7 nM; the koff is 0.011 s⁻¹; the kon worked out at 426000 M⁻¹ s⁻¹.

B3: #44_VH4VK4_H05/pVL (antibody, V domains shown)
VH: B1 VH with S99A, A101H, P104Y
VL: B1 VL with Q1D, V3Q, K64S
notes: also called Clone VH4_H05; #44_VH4_H05
With B3, in the test with Bovine serum albumin [6], the binding result is “no binding (tested: 30 ng/ml (legend 1:100))”. Further, in test [7], the “Fold change (KD, to pVH/pVL)” value turned out to be 1.36; the Kd amounted to 4.84 nM; the koff was found to be 0.0203 s⁻¹; the kon amounted to 4.18e+06 M⁻¹ s⁻¹.

B4: #44_VH4VK4_H07/pVL (antibody, V domains shown)
VH: B1 VH with C50A, R53A, R54A, G56N
VL: B1 VL with Q1D, V3Q, K64S
notes: also called Clone VH4_H07; #44_VH4_H07
In the case of B4, the binding result with Bovine serum albumin [6] is “no binding (tested: 30 ng/ml (legend 1:100))”. In test [7], the “Fold change (KD, to pVH/pVL)” value amounted to 0.9 and the Kd was determined as 7.35 nM.

B5: #44_VH4VK4_H03/pVL (antibody, V domains shown)
VH: B1 VH with S99A, P104V
VL: B1 VL with Q1D, V3Q, K64S
notes: also called Clone VH4_H03; #44_VH4_H03
Turning to B5, the binding result with Bovine serum albumin [6] is reported as “no binding (tested: 30 ng/ml (legend 1:100))”. In test [7], the “Fold change (KD, to pVH/pVL)” value worked out at 1.03; the Kd was 6.4 nM; the koff worked out at 0.0151 s⁻¹; the kon turned out to be 2.36e+06 M⁻¹ s⁻¹.

B6: #44 VH4VK3 humanised hIgG1 (antibody, V domains shown)
VH: B1 VH
VL: B1 VL with Q1D, V3Q
notes: also called VH4Vκ3; Clone VH4VK3 (D)
Regarding B6, the binding result in the test with Bovine serum albumin [1] is reported as “no binding (tested: supernatant 1:100)”. Besides, in test [2], the Kd was 5.14 nM, the “Relative KD (to VH0VK0)” value stood at 1.58, the koff amounted to 0.0403 s⁻¹ and the kon is 7.83e+06 M⁻¹ s⁻¹. Moreover, in test [3], the Kd worked out at 6.68 nM, the “Relative KD (to VH0VK0)” value turned out to be 1.74, the koff was found to be 0.034 s⁻¹ and the kon came to 5.09e+06 M⁻¹ s⁻¹. In test [4], the “increase of monomeric tau uptake into human iPSC-derived microglia” value came to 60.2%, the “inhibition of monomeric tau uptake into human iPSC-derived astrocytes” value was determined as 87.5% and the “inhibition of monomeric tau uptake into human iPSC-derived neurons” value turned out to be 41.8%. Besides, in test [5], the “increase of aggregated tau uptake into human iPSC-derived microglia” value stood at 90.5%, the “inhibition of aggregated tau uptake into human iPSC-derived astrocytes” value turned out to be 49.9% and the “inhibition of aggregated tau uptake into human iPSC-derived neurons” value was found to be 36.3%.
